Starred links: 1 amine or outer side, 2 acyl side, 3 side chain; linkers in the order of their positions; H or OH if unused. Positions of bridges follow the written chain, without caps; N, C: chain ends. Non-standard residues stand in square brackets, D forms with d. Primed or numbered codes have the meaning given here. B5(4) = 2,2-bis(4-pentenyl)glycine = 2-amino-2-(pent-4-en-1-yl)hept-6-enoic acid (stitching residue), C=CCCCC(CCCC=C)(N[*:1])C(=O)[*:2]; B5(33) = 2-amino-2-(pent-4-en-1-yl)hept-6-enoic acid (bis-pentenylglycine, two olefin side chains), C=CCCCC(CCCC=C)(N[*:1])C(=O)[*:2]; B5(20) = 2-amino-2-(pent-4-en-1-yl)hept-6-enoic acid = bis(4-pentenyl)glycine, stitching residue, C=CCCCC(CCCC=C)(N[*:1])C(=O)[*:2]; B5(21) = 2-amino-2-(pent-4-en-1-yl)hept-6-enoic acid, bis(4-pentenyl)glycine (stitching residue), C=CCCCC(CCCC=C)(N[*:1])C(=O)[*:2]; B5(6) = 2-amino-2-(pent-4-en-1-yl)hept-6-enoic acid (bis(4-pentenyl)glycine), stitching residue, C=CCCCC(CCCC=C)(N[*:1])C(=O)[*:2]; (NHiPr)AsnR = N4-isopropyl-L-asparagine, CC(C)NC(=O)C[C@H](N[*:1])C(=O)[*:2]; (NHEt)AsnR = N4-ethyl-L-asparagine, CCNC(=O)C[C@H](N[*:1])C(=O)[*:2]; Phe(2-CONH2) = NC(=O)c1ccccc1C[C@H](N)C(=O)O; Phe(2-OMe) = COc1ccccc1C[C@H](N)C(=O)O; Bta = N[C@@H](Cc1csc2ccccc12)C(=O)O; αAllylPro = C=CC[C@@]1(C(=O)O)CCCN1; S8 = C=CCCCCCC[C@](C)(N)C(=O)O
T1: beta-catenin (full-length, Uniprot ID P35222) (Homo sapiens (Human), UniProt P35222 2-781)
T1 construct: The FP protocol says 'full-length beta-Catenin (Uniprot ID P35222)'; also called bCat; B-Catenin
T1 sequence: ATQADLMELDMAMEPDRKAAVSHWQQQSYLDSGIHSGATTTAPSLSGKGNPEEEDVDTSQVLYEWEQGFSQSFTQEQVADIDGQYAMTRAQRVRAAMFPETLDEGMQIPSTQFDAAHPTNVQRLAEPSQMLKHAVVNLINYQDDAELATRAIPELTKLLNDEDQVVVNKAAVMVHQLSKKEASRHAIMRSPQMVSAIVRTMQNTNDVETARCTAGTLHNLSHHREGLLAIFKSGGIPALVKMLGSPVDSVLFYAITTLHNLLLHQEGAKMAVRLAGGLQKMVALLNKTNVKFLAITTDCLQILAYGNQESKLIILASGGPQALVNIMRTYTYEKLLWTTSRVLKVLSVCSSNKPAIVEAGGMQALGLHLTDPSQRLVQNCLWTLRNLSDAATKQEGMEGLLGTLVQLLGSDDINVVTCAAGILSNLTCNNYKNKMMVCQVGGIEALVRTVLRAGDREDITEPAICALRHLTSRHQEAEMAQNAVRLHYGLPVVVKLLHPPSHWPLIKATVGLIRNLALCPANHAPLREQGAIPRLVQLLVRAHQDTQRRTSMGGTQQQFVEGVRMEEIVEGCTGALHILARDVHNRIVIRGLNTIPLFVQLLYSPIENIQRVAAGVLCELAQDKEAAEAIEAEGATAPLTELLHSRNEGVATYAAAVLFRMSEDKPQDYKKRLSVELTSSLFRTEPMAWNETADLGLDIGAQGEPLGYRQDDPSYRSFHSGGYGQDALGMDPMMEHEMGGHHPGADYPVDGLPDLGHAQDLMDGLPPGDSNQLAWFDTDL

T2: full-length beta-Catenin (Uniprot ID P35222) (Homo sapiens (Human), UniProt P35222 1-781)
T2 construct: also called bCat; B-Catenin
T2 sequence: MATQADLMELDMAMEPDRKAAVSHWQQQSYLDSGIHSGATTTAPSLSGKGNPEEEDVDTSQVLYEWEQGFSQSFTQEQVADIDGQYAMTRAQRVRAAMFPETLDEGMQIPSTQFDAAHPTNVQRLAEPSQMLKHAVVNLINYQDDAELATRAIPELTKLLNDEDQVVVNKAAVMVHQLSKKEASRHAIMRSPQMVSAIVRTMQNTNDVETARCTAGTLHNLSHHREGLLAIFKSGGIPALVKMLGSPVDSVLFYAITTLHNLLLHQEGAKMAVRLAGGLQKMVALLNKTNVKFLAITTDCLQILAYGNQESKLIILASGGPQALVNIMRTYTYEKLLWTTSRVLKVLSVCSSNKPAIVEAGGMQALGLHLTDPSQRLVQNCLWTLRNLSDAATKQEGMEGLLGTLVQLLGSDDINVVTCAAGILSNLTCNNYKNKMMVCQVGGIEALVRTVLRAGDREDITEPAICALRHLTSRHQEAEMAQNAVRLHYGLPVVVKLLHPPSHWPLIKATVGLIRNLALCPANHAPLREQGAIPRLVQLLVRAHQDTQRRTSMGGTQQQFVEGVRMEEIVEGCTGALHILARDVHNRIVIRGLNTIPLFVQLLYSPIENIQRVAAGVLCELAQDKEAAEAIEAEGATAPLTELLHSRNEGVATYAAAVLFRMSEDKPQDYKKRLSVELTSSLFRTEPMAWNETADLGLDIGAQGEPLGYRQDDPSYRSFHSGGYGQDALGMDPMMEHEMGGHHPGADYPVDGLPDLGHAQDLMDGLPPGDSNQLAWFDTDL

B1: I-123: Ac-PL3-Asp-Ala-B5-Asp-Glu-Ala-Ala-Phe-Val-S8-Phe-Trp-Gln-NH2 (peptide)
peptide: Ac-[αAllylPro]DA[B5(4)]DEAAFV[S8]FWQ-NH2
modifications: staple 1-4, 4-11
notes: Stapled (stitched) peptide
B2: I-135: Ac-PL3-Asp-Ala-B5-Asp-Glu-Ala-Ala-Phe-Val-S8-Phe-Trp-Ala-NH2 (peptide)
peptide: Ac-[αAllylPro]DA[B5(4)]DEAAFV[S8]FWA-NH2
modifications: staple 1-4, 4-11
notes: Stapled peptide
B3: I-125: Ac-PL3-Asp-Ala-B5-Asp-Asn-Ala-Ala-Phe-Val-S8-Phe-Trp-Gln-NH2 (peptide)
peptide: Ac-[αAllylPro]DA[B5(33)]DNAAFV[S8]FWQ-NH2
modifications: staple 1-4, 4-11
notes: Stapled peptide
B4: I-127: Ac-PL3-Asp-Ala-B5-Asp-Gln-Ala-Ala-Phe-Val-S8-Phe-Trp-Gln-NH2 (peptide)
peptide: XDAXDQAAFVXFWQ
modifications: not fully specified; N-terminal Ac; PL3 at 1; B5 at 4; S8 at 11; C-terminal NH2; stapled by olefin metathesis (PL3-B5 and B5-S8)
notes: Stapled peptide
B5: I-133: Ac-PL3-Asp-Ala-B5-Asp-Glu-Ala-Ala-Phe-Val-S8-Phe-Trp-Aib-NH2 (peptide)
peptide: XDAXDEAAFVXFWX
modifications: not fully specified; N-terminal Ac; PL3 at 1; B5 at 4; S8 at 11; Aib at 14; C-terminal NH2; stapled by olefin metathesis (PL3-B5 and B5-S8)
notes: Stapled peptide
B6: I-513 (peptide)
peptide: Ac-[αAllylPro]DA[B5(20)]DEAAFN[S8][Phe(2-CONH2)][Bta]H-NH2
modifications: staple 1-4, 4-11
notes: Stapled peptide composition; also called Ac-PL3-Asp-Ala-B5-Asp-Glu-Ala-Ala-Phe-Asn-S8-2CBMF-BztA-His-NH2
B7: I-536 (peptide)
peptide: Ac-[αAllylPro]DA[B5(21)][(NHEt)AsnR]DAAFV[S8]F[Bta]Q-NH2
modifications: staple 1-4, 4-11
notes: Stapled peptide composition; also called Ac-PL3-Asp-Ala-B5-[NHEt]AsnR-Asp-Ala-Ala-Phe-Val-S8-Phe-BztA-Gln-NH2
B8: I-512 (peptide)
peptide: Ac-[αAllylPro]DI[B5(20)]DEAAFN[S8][Phe(2-OMe)][Bta]H-NH2
modifications: staple 1-4, 4-11
notes: Stapled peptide composition; also called Ac-PL3-Asp-Ile-B5-Asp-Glu-Ala-Ala-Phe-Asn-S8-2OMeF-BztA-His-NH2
B9: I-514 (peptide)
peptide: Ac-[αAllylPro]DI[B5(20)]DEAAFN[S8][Phe(2-CONH2)][Bta]H-NH2
modifications: staple 1-4, 4-11
notes: Stapled peptide composition; also called Ac-PL3-Asp-Ile-B5-Asp-Glu-Ala-Ala-Phe-Asn-S8-2CBMF-BztA-His-NH2
B10: I-535 (peptide)
peptide: Ac-[αAllylPro]DA[B5(21)][(NHiPr)AsnR]DAAFV[S8]F[Bta]Q-NH2
modifications: staple 1-4, 4-11
notes: Stapled peptide composition; also called Ac-PL3-Asp-Ala-B5-[NHiPr]AsnR-Asp-Ala-Ala-Phe-Val-S8-Phe-BztA-Gln-NH2
B11: I-506 (peptide)
peptide: Ac-[αAllylPro]DL[B5(6)]DEAAFQ[S8]F[Bta]H-NH2
modifications: staple 1-4, 4-11
notes: Stapled peptide composition; also called Ac-PL3-Asp-Leu-B5-Asp-Glu-Ala-Ala-Phe-Gln-S8-Phe-BztA-His-NH2
B12: I-527 (peptide)
peptide: XDIXDEAAFQXFXQ
modifications: not fully specified; N-terminal acetyl (Ac); PL3 at X1, B5 at X4 and S8 at X11 stapled (PL3-B5 and B5-S8, olefin metathesis); 2OMeF at X12; BztA at X13; C-terminal amide (NH2)
notes: Stapled peptide composition; also called Ac-PL3-Asp-Ile-B5-Asp-Glu-Ala-Ala-Phe-Gln-S8-2OMeF-BztA-Gln-NH2
B13: I-507 (peptide)
peptide: XDAXDEAAFQXFXT
modifications: not fully specified; N-terminal acetyl (Ac); PL3 at X1, B5 at X4 and S8 at X11 stapled (PL3-B5 and B5-S8, olefin metathesis); BztA at X13; C-terminal amide (NH2)
notes: Stapled peptide composition; also called Ac-PL3-Asp-Ala-B5-Asp-Glu-Ala-Ala-Phe-Gln-S8-Phe-BztA-Thr-NH2
B14: I-508 (peptide)
peptide: XDAXDEAAFQXFXT
modifications: not fully specified; N-terminal acetyl (Ac); PL3 at X1, B5 at X4 and S8 at X11 stapled (PL3-B5 and B5-S8, olefin metathesis); BztA at X13; C-terminal amide (NH2)
notes: as for B13
B15: I-528 (peptide)
peptide: XDIXDEAAFQXFXQ
modifications: not fully specified; N-terminal acetyl (Ac); PL3 at X1, B5 at X4 and S8 at X11 stapled (PL3-B5 and B5-S8, olefin metathesis); 2OMeF at X12; BztA at X13; C-terminal amide (NH2)
notes: as for B12

target: T1, beta-catenin (full-length, Uniprot ID …); assay: fluorescence polarization competition vs 5FAM-TCF4(10-53) on full-length beta-catenin
Description: (§1) The plate was incubated protected from light for 60 minutes at 20° C. prior to read. Reads were performed on a CLARIOstar plate reader (BMG Labtech) in duplicate, and data were fitted to a 1:1 binding model with hill slope using an in-house script. All provided concentrations are final concentrations.

| IC50 [nM] | Binder |
| --- | --- |
| 2110 | B1 |
| 1870 | B2 |
| 3060 | B3 |
| 4840 | B4 |
| 5000 | B5 |

target: T2, full-length beta-Catenin (Uniprot ID …); assay: fluorescence polarization competition; 10 nM full-length beta-catenin + 10 nM 5FAM-TCF4(10-53) probe
Description: as §1

| EC50 [nM] | Binder |
| --- | --- |
| 143 | B6 |
| 4470 | B7 |
| 20 | B8 |
| 30 | B9 |
| 5000 | B10 |
| 25 | B11 |
| 98 | B12 |
| 192 | B13 |
| 73 | B14 |
| 63 | B15 |
